Patent US20120122765A1, “COMPOUNDS AND RELATED METHODS FOR MANIPULATING PARP-1-DEPENDENT CELL DEATH” (priority 2010, published 2012)
Where a SMILES comes first, the peptide text is derived from it. The star is where a group is joined. Cbz = O=C(OCc1ccccc1)*; CH2F = FC*

Tests used:
Hq cortical neurons = experiment: NMDA excitotoxicity in Hq cortical neurons; assay type: cell-based, mouse; conditions: DPQ (30 μM) or zVAD (100 μM) in addition to NMDA
Experimental: HQ cortical neuron cells were transduced with lentivirus carrying WT-AIF-Flag or Pbm-AIF-Flag. Non-transduced neurons and GFP-lentivirus infected cells were used as negative controls. […] In those photos, blue indicates Hoechst 33342 staining and red indicates propidium iodide staining. […] The cytotoxicity in these Hq cortical neurons was measured at 24 hours, 36 hours, and 48 hours after NMDA (500 μM for 5 min) treatment, and the data for this is reported in the graph of FIG. 18B.

HeLa cells = experiment: AIF nuclear translocation in HeLa cells after MNNG; assay type: cell-based; conditions: MNNG 50 μM for 15 minutes
Experimental: (§1) Unless otherwise set forth herein, immunocytochemistry, immunohistochemistry and confocal microscopy as referenced in the examples entailed the following materials and procedures. For immunocytochemistry, cells were fixed 2 hours after treatment with 4% paraformaldehyde, permeabilized with 0.05% Triton X-100, and blocked with 3% bovine serum albumin in PBS. AIF was visualized by 2 μg/ml mouse anti-Flag/Cyt AffiniPure Donkey Anti-Mouse IgG or rabbit anti-AIF/Cy3 AffiniPure Donkey Anti-Rabbit IgG. Immunohistochemistry was performed using the antibody against Flag. Immunofluorescence analysis thereafter was carried out by using a LSM510 confocal laser scanning microscope (obtained from Carl Zeiss Microlmaging) as described by H. Wang et al. (J. Neurosci, 2004).

Hq MEFs = experiment: MNNG cytotoxicity in Hq MEFs; assay type: cell-based, mouse; conditions: zVAD 100 μM, 24 hours after MNNG 500 μM for 15 min
Experimental: Further, the effect WT-AIF-Flag or Pbm-AIF-Flag on Hq MEF cell viability was determined 24 hours after MNNG (500 μM for 15 min) cytotoxicity with and without zVAD (100 μM), and the results of three trials is reported in FIG. 17B.

isolated HeLa nuclei = experiment: nuclear shrinkage assay; assay type: biochemical; conditions: non-tagged proteins incubated with isolated HeLa nuclei
Experimental: Nuclei were obtained by purification from HeLa cells as described previously by A. Mandir et al. (J Neurosci, 2000). For the assay, purified nuclei were incubated with recombinant WT-AIF or Pbm-AIF (20 ng/ml) in the presence of ATP (2 mM), phosphocreatine (20 mM) and creatine kinase (50 μg/ml) for 90 minutes at 37° C. Nuclei were stained by DAPI and examined by fluorescence microscopy.
FIG. 11D comprises an array of color photographs showing the result of fluorescence microscopy for various cultures, as labeled in the figure, following DAPI staining. […] FIG. 11E is a chart reporting the result of a quantification of nuclei treated by WT-AIF, Pbm-AIF, and control (“CTL”), using Caspase 3 as a positive control.

PAR [1] = experiment: in vitro PAR-binding assay, twenty percent TBE-PAGE analysis
Experimental: To begin, 300 nM of purified WT-AIF or Pbm-AIF (i.e., AIF mutated in its PAR binding region) were incubated with ^32P-labeled PAR for 10 minutes at room temperature. Thereafter, samples were incubated with AIF antibody-linked protein G slurry for 1 hour. Samples were washed two times with PBS and boiled with 1× Laemmli sample buffer (obtained from BIO-RAD). Each soluble fraction was resolved in 20% TBE-PAGE. The gel was heat dried and developed using the Typhoon 9400 Imager.
(§2) To further ascertain whether full length recombinant AIF-Tm produced above (henceforth named “Pbm-AIF”) binds PAR, Applicants performed three iterations of an EMSA assay for PAR binding with recombinant WT-AIF and Pbm-AIF, using histone H3 as a control. […] FIG. 9 comprises a black and white photograph of EMSA gels showing representative results for WT-AIF and Pbm-AIF using ^32P-labeled PAR.

[2] = system: Hq mouse cortical neuronal cultures; experiment: AIF translocation to the nucleus in Hq cortical neurons; assay type: cell-based; conditions: 100 nM staurosporine, 24 hours
Experimental: as §1, with “For immunocytochemistry, cells were fixed 2 hours after treatment with 4% paraformaldehyde, permeabilized with 0.05% Triton X-100, and blocked with 3% bovine serum albumin in PBS.” left out
Again, AIF translocation to the nucleus was monitored two hours after NMDA (500 μM, 5 minutes) treatment sufficient to initiate parthanatos in wild-type cells.

PAR [3] = experiment: biotin-labeled PAR pull-down assay; assay type: binding; conditions: biotin-labeled PAR-conjugated NeutrAvidin beads
Text: To confirm that Pbm-AIF fails to bind PAR, Applicants also performed four trials of biotin-labeled PAR pull-down assays on WT-AIF, Pbm-AIF, and histone H3. For this experiment, the pull-down assay used biotin-labeled PAR-conjugated NeutrAvidin beads. FIG. 10A comprises a composite black and white photograph depicting typical gels obtained in this pull-down assay.

isolated mitochondria = experiment: AIF binding to isolated mitochondria
Experimental: One commonly accepted estimate is that approximately 20%-30% of AIF resides on the cytosolic side of the outer membrane of mitochondria, where it is poised to be rapidly released by PAR following PARP-1 activation. Applicants thus wanted to perform tests of AIF binding to mitochondria determine how readily purified WT-AIF and Pbm-AIF bind to mitochondria in a time- and concentration-dependent manner. Specifically, recombinant WT-AIF (2.5 ng/μl) and Pbm-AIF (2.5 ng/μl) were incubated with isolated mitochondria (200 μg/ml) for 1 minute, 5 minutes, 10 minutes, 15 minutes, 20 minutes or 30 minutes. […] The results of this portion of the experiment is provided by the graph of FIG. 15B.
To investigate the mechanism underlying mitochondrial AIF release following PARP-1 activation, Applicants incubated isolated mitochondria with purified non-tagged forms of AIF in the presence or absence of PAR and followed this by centrifugation to remove the mitochondria. Detection of AIF remaining in the supernatant was thereafter performed through immunoblot analysis.
The supernatant collected in the experiments of Example 16 were also analyzed for the presence of Tom20 and cyclochrome c.

PAR [4] = experiment: EMSA with 32P-labeled PAR; assay type: binding
Experimental: (§3) The following experiment was performed to confirm whether AIF in fact binds to PAR. Applicants performed 3 trials of an overlay assay on recombinant AIF with affinity-purified biotin-labeled PAR. Histone H3, which binds to PAR with high affinity, was included as a positive control and bovine serum albumin (“BSA”) was included as a negative control, as described by P. Chang et al. (Nat Cell Bio, 2005). FIG. 1B depicts three photos side by side for gels representative of all trials for these overlay assays. […] Thus, Applicants took the results of these two tests as confirming that AIF binds to PAR in vitro.
as §2

PAR [5] = experiment: PAR overlay assay of full length AIF and mutants; assay type: binding
Experimental: as §3
To further study these potential AIF PBMs, Applicants performed the following experiment to examine the effect of mutating AIFm amino acids 222-244, 441-463, and/or 567-592 to poly-alanine on the ability of AIF to bind PAR. FIG. 6 comprises black and white photographs of representative gels from an overlay assay of His-tagged WT-AIF, AIFm222-244, AIFm441-463, AIFm567-592, AIFΔ567-592 (i.e., a mutant lacking AAs 567-592), and AIF(K254A, R264A) (i.e., mutating K to A at 254 and R to A at 264) mutants with ^32P-labeled automodified PARP-1 (equivalent to 100 nM of PAR), purified ^32P-labeled PAR (100 nM), or purified ^32P-labeled PAR with either a 100-fold excess of DNA or cold PAR. […] The same can be assumed to corresponding sequences for other species, such as those identified in FIG. 4.
Additionally, to exclude the possibility that PAR polymer is binding to AIF through its DNA-binding domain, PAR polymer binding was assessed against the full length AIF DNA-binding mutant AIFK254A;R264A as described by H Cande et al. (Nat Struct Biol, 2002).
Finally, Human AIF (“AIFH”) is known to bind to DNA through a groove between the FAD-binding domain (“D1”) and C-terminal domain (“D3”). A mutant form of AIFH in which lysine 255 is substituted with alanine and arginine 265 is substituted with alanine (AIFK255A;R265A) completely lacks DNA binding. To investigate the possible contribution of the AIF DNA-binding domain to PAR binding, Applicants assessed PAR binding to AIFm mutated in the same way (AIFK254A;R264A). […] Thus, Applicants concluded that the AIF PAR-binding site is separable from its DNA-binding site, meaning that such binding could be inhibited by genetically modifying AIF without impacting the natural DNA binding capabilities of AIF or potentially by otherwise inhibiting the binding action of the PBMs.

Row | Molecule | effect on NMDA-induced cortical neuron death (Hq cortical neurons) | effect on nuclear translocation of AIF after MNNG (HeLa cells) | effect on MNNG-induced cell death (Hq MEFs) | chromatin condensation and nuclear shrinkage (isolated HeLa nuclei) | binding to 32P-PAR (PAR [1]) | translocation to the nucleus after staurosporine [2] | pull-down with biotin-labeled PAR (PAR [3]) | binding to mitochondria versus concentration (isolated mitochondria; 0.1 ng/μl to 120.5 ng/μl, 30 minutes, room temperature) | binding percentage to mitochondria over time (isolated mitochondria; 2.5 ng/μl, mitochondria 200 μg/ml, after 5 minutes) | effect of PAR on association with mitochondria (isolated mitochondria; 5 nM PAR) | effect of PAR on association with mitochondria (isolated mitochondria; 50 nM PAR) | effect of PAR on association with mitochondria (isolated mitochondria; 100 nM PAR) | depletion from the supernatant by mitochondria (isolated mitochondria; untreated mitochondria, absence of PAR) | PAR mobility shift (PAR [4]) | PAR binding (PAR [5]; His-tagged proteins, purified PAR, normalized to WT-AIF, result in words) | reduced PAR binding (PAR [5]; radioactive signal normalized to WT-AIF) [%]
1 | O=C1NCCc2c(OCCCCN3CCCCC3)cccc21 [DPQ, 3,4-Dihydro-5[4-(1-piperindinyl)butoxy]-1(2H)-isoquinoline, reference compound] | inhibited NMDA-induced cortical neuron death | prevented the nuclear translocation of both endogenous AIF and WT-AIF-Flag |  |  |  |  |  |  |  |  |  |  |  |  |  | 
2 | CC(NC(=O)C(NC(=O)OCc1ccccc1)C(C)C)C(=O)NC(CC(=O)O)C(=O)CF (stereo not drawn) [zVAD, reference compound] (Cbz-Val-Ala-Asp-CH2F; configuration not given here) | did not |  | failed to influence MNNG-induced cell death in MEFs |  |  |  |  |  |  |  |  |  |  |  |  | 
3 | Pbm-AIF: full length mouse AIF mutant R588A;K589A;K592A (PAR binding motif mutant) (protein) MFRCGGLAGAFKQKLVPLVRTVYVQRPKQRNRLPGNLFQQWRVPLELQMARQMASSGSSGGKMDNSVLVLIVGLSTIGAGAYAYKTIKEDQKRYNERVMGLGLSPEEKQRRAIASATEGGSVPQIRAPSHVPFLLIGGGTAAFAAARSIRARDPGARVLIVSEDPELPYMRPPLSKELWFSDDPNVTKTLQFRQWNGKERSIYFQPPSFYVSAQDLPNIENGGVAVLTGKKVVHLDVRGNMVKLNDGSQITFEKCLIATGGTPRSLSAIDRAGAEVKSRTTLFRKIGDFRALEKISREVKSITVIGGGFLGSELACALGRKSQASGIEVIQLFPEKGNMGKILPQYLSNWTMEKVKREGVKVMPNAIVQSVGVSGGRLLIKLKDGRKVETDHIVTAVGLEPNVELAKTGGLEIDSDFGGFRVNAELQARSNIWVAGDAACFYDIKLGRRRVEHHDHAVVSGRLAGENMTGAAKPYWHQSMFWSDLGPDVGYEAIGLVDSSLPTVGVFAKATAQDNPKSATEQSGTGIRSESETESEASEITIPPSAPAVPQVPVEGEDYGKGVIFYLRDKVVVGIVLWNVFNRMPIAAAIIADGEQHEDLNEVAKLFNIHED |  |  |  | comparable levels of chromatin condensation and nuclear shrinkage | failed to bind to ^32P-PAR | translocated to the nucleus | only a barely detectable amount | bound to the mitochondria in a concentration dependent manner | equivalent | failed to affect association | barely detectable effects | partially reduced mitochondrial binding | effectively depleted | no effect on PAR mobility | nearly abolished PAR-binding | 90
